Test results taken from patent US20260234738A1 (Regeneron, published 2026).

B1: mAb10936 (antibody, V domains shown)
VH: QVQLVESGGGVVQPGRSLRLSCAASGFTFRNYGMHWVRQAPGKGLEWVSVIWYDGSNRYYADSVKGRFTISRDTSKNTLYLQMNSLRAEDTAVYYCARDPPITGTTGGDAFDIWGQGTMVTVSS
VL: not shown
B2: mAb10934 (antibody, V domains shown)
VH: not shown
VL: DIQMTQSPSSLSASVGDRVTITCQASQDIWNYINWYQQKPGKAPKLLIYDASNLKTGVPSRFSGSGSGTDFTFTISSLQPEDIATYYCQQHDDLPPTFGQGTKVEIKR
B3: mAb10935 (antibody, V domains shown)
VH: EVQLVESGGGLVQPGGSLRLSCAASGFTVSSNYMSWVRQAPGKGLEWVSLIYSGGSTYYADSVKGRFTISRHNSKNTLYLQMNSLRSEDTAVYYCARVPLGDYYYGMDVWGQGTTVTVSS
VL: DIQMTQSPSSLSASVGDRVTITCQASQDINKYLNWYQQKPGKAPKLLIYDASNLETGVPSRFSGSGSGTDFTFTISSLQPEDIATYYCQQSDNLPLTFGGGTKVEIKR
B4: mAb10913 (antibody, V domains shown)
VH: EVQLVESGGGLVQPGGSLRLSCAASGFTFRNYEMNWVRQAPGKGLEWVSYITSSGSTMYYADSVKGRFTISRDNAKNSLYLQMNSLRAEDTAVYYCARDGFYYYYAMDVWGQGTTVTVSS
VL: QSVLTQPPSVSAAPGQKVTISCSGSSSNIGNNYVSWYQQLPGTAPKLLIYDNNKRPSGIPDRFSGSKSGTSATLGITGLQTGDEADYYCGTWDSSLSVGRVFGTGTKVTVLG
B5: mAb10920 (antibody, V domains shown)
VH: QVQLVESGGGVVQPGRSLRLSCAASGFTFSYYGMHWVRQAPGKGLEWVAVIWYDGSNKFYADSVKGRFTISRDNSKNTLYLQMNSLRAEDTAVYYCAAARPGYYYGMDVWGQGTTVTVSS
VL: DIQMTQSPSSLSASVGDRVTITCRASQGISNYLAWFQQKPGKAPNSLIYAASSLQRGVPSKFSGSGSGTDFTLTISSLQPEDFATYYCQQYNSYPRTFGQGTKVEIKR
B6: mAb10921 (antibody, V domains shown)
VH: EVQLVESGGGLVQPGGSLRLSCAASGITVSSNYMSWVRQAPGKGLEWVSVIYSGGSTFYADSVKGRFTISRHNSKNTLYLQMNSLRAEDTAVYYCARERNFDAFDIWGQGTMVTVSS
VL: DIQMTQSPSSVSASVGDRVTITCRASQGISSWLAWYQQKPGKAPKLLIYAASSLQSGVPSRFSGSGSGTDFTLTISSLQPEDFATYYCQQANSFPLFTFGPGTKVDIKR
B7: mAb10923 (antibody, V domains shown)
VH: QVQLVQSGAEVKKPGASVKVSCKASGYTFINYYIHWVRQAPGQGLEWMGWINPNSGGTNYAQKFQGRVTMTRDTSISTAYMELSRLRSDDTAVYYCAIITIFGVVTWFDPWGQGTLVTVSS
VL: not shown
B8: mAb10937 (antibody, V domains shown)
VH: QITLKESGPTLVKPTQTLTLTCTFSGFSLSTNVVGVGWIRQPPGKALEWLALIYWNDDKRYSPSLKSRLTITKDTSKNQVVLTMTNMDPVDTATYYCAHGPTGDYFDYWGQGTLVTVSS
VL: not shown
B9: mAb10932 (antibody, V domains shown)
VH: EVQLVESGGGLVQSGGSLRLSCAASGLTVSSNYMSWVRQAPGKGLEWVSVIYSGGSTFYSDSVKGRFTISRHNSKNTLYLQMNSLRAEDTAVYYCARARGDAFDIWGQGTMVTVSS
VL: not shown

The binders below were run against SARS-COV-2 RBD extracellular domain expressed with a C-terminal mouse IgG2a (SARS-CoV-2).
Work on B1 yielded a Kd of no more than 0.0153 nM, a koff of no more than 1e-05 s⁻¹ and a kon of 652000 M⁻¹ s⁻¹. For the same binder, the t½ was no less than 1160 min. Binder B2 has a Kd of 0.0832 nM and a t½ of 98.3 min. B3 was tested, and the Kd was no more than 0.0261 nM, the koff was no more than 1e-05 s⁻¹ and the kon was 383000 M⁻¹ s⁻¹. It also gave a t½ of no less than 1160 min. B4 showed a Kd of 0.244 nM, a koff of 0.000152 s⁻¹ and a kon of 623000 M⁻¹ s⁻¹. It also gave a t½ of 76.1 min. B5 was tested, and the Kd was 0.416 nM and the t½ was 39.5 min. B6 gave a Kd of no more than 0.0375 nM, a koff of no more than 1e-05 s⁻¹ and a t½ of no less than 1160 min. B7 showed a Kd of 0.0435 nM, a koff of 2.83e-05 s⁻¹ and a kon of 651000 M⁻¹ s⁻¹. It also gave a t½ of 408 min. B8 was tested, and the Kd was 0.114 nM, the koff was 7.28e-05 s⁻¹ and the kon was 639000 M⁻¹ s⁻¹. For the same binder, the t½ was 159 min. B9 was tested, and the Kd was no more than 0.0413 nM, the koff was no more than 1e-05 s⁻¹ and the kon was 242000 M⁻¹ s⁻¹. For the same binder, the t½ was no less than 1160 min.
